Measured values as given in US20190056395.

T1: MSP-MS library tetradecapeptide KWLIHPTFSYnRWP
T1 chain: KWLIHPTFSYNRWP


Molecular target: T1, MSP-MS library tetradecapeptide …

Row | Protein | kcat/Km (mass spectrometry-based cleavage time course)
1 | recombinant mature Sap5 (secreted aspartyl protease 5) from Candida albicans, expressed in Pichia pastoris (protein) GPVAVTLHNEAITYTADITVGSDNQKLNVIVDTGSSDLWIPDSNVICIPKWRGDKGDFCKSAGSYSPASSRTSQNLNTRFDIKYGDGSYAKGKLYKDTVGIGGVSVRDQLFANVWSTSARKGILGIGFQSGEATEFDYDNLPISLRNQGIIGKAAYSLYLNSAEASTGQIIFGGIDKAKYSGSLVDLPITSEKKLTVGLRSVNVRGRNVDANTNVLLDSGTTISYFTRSIVRNILYAIGAQMKFDSAGNKVYVADCKTSGTIDFQFGNNLKISVPVSEFLFQTYYTSGKPFPKCEVRIRESEDNILGDNFLRSAYVVYNLDDKKISMAPVKYTSESDIVAIN | 4.4×10^4 M^-1 s^-1 (Sap5)
2 | recombinant mature Sap6 (secreted aspartyl protease 6) from Candida albicans, expressed in Pichia pastoris (protein) GPVAVKLDNEIITYSADITVGSNNQKLSVIVDTGSSDLWIPDSKAICIPKWRGDCGDFCKNNGSYSPAASSTSKNLNTRFEIKYADGSYAKGNLYQDTVGIGGASVKNQLFANVWSTSAHKGILGIGFQTNEATRTPYDNLPISLKKQGIIAKNAYSLFLNSPEASSGQIIFGGIDKAKYSGSLVELPITSDRTLSVGLRSVNVMGRNVNVNAGVLLDSGTTISYFTPSIARSIIYALGGQVHFDSAGNKAYVADCKTSGTVDFQFDKNLKISVPASEFLYQLYYTNGKPYPKCEIRVRESEDNILGDNFMRSAYIVYDLDDKKISMAQVKYTSESNIVAIN | 2.0×10^5 M^-1 s^-1 (Sap6)
